Test results published in PMC9753469, “Structure and functional mapping of the KRAB‐KAP1 repressor complex” (The EMBO Journal, 2022).
Blank lines part the entries; values can stand above or below the binder they belong to.

Target: T1, KAP1 RBCC (wild type), SPR analyte (human (by the printed UniProt entry), UniProt Q13263 50-413)
T1 construct: KAP1 (TRIM28) RBCC motif; probably as in Stoll et al, 2019; also called WT KAP1 RBCC; wild-type KAP1; source: E. coli BL21(DE3)
Assay: SPR; Biacore T200, CM5 chip; MBP-KRAB immobilised (about 300 RU ZNF93 WT, 600 RU E35R); KAP1 RBCC flowed, 1:2 dilution series from 40 μM; 20 mM HEPES pH 8.0, 0.5 M NaCl, 0.5 mM TCEP, 20°C; biphasic kinetic model
Settings: both partners purified

T1 sequence (Q13263 50-413): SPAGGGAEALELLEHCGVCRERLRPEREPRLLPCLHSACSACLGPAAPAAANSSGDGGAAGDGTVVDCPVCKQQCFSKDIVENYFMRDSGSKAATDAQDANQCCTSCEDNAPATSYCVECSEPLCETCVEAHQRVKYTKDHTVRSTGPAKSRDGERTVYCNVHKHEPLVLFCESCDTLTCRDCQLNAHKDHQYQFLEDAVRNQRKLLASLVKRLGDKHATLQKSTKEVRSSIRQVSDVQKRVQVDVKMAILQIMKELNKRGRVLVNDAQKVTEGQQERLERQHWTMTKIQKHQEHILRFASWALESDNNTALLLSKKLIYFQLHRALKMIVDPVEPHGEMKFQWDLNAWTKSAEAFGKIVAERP

- Kd: 7.5 nM
B1: MBP-KRAB (ZNF93 KRAB, wild type) (domain or fragment)
chain: not shown
notes: ZNF93, human, residues 2-71 (KRAB domain); The purification of MBP-KRAB alone is not described; also called ZNF93 WT; source: E. coli BL21(DE3); not shown: MBP, N-terminal, kept

- Kd: 198 nM
B2: MBP-KRAB (ZNF93 KRAB E35R) (domain or fragment)
chain: not shown
notes: ZNF93, human, residues 2-71 (KRAB domain), E35R; also called ZNF93 E35R; source: E. coli BL21(DE3); not shown: MBP, N-terminal, kept
